T1: His-SUMOSTAR-FANCD2(1-762) (Drosophila melanogaster) (Drosophila melanogaster, UniProt Q8MYL1 1-762)
T1 sequence (looked up): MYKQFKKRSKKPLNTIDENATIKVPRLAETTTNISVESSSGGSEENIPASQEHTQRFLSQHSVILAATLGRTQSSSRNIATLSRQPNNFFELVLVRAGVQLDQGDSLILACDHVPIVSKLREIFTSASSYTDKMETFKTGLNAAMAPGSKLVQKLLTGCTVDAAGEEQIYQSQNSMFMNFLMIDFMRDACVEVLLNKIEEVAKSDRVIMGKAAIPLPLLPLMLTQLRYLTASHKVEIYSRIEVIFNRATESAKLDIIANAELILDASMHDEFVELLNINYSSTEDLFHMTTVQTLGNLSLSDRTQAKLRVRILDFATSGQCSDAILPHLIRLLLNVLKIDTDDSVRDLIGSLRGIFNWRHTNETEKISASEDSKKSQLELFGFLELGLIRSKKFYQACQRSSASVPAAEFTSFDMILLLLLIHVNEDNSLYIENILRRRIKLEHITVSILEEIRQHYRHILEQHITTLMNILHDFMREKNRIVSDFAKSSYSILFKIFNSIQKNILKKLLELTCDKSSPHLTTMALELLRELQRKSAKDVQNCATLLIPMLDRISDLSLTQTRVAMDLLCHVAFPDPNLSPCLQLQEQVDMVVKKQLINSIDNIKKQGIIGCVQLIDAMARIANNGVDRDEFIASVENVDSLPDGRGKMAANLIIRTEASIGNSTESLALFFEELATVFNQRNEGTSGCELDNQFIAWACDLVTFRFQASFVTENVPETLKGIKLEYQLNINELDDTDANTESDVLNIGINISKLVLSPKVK


Biological target: T1, His-SUMOSTAR-FANCD2(1-762) (Drosophila …)
Assay: pull-down

Binder | binding result
Drosophila melanogaster FANCL, full length (enzyme, UniProt Q8T913 1-381, looked up) MESNEDVERLLCQKYPGLAAELQPSGACIIRGVLGSEDTWRRLKLYLPHHPALHGFQLYVQESLEYKLYTSANLKLQDDWLLEDFLDHLPKILPAQKAPTVPKELCREGNIYYDILALYKSNEYCLQVDEACSMIRFSEFTDFEQHYLELKIPSLLLLDHSLPDCVSLGEMLTKSAGNLEEALNLFRKLLEDLRPFYDNFMDIDELCHVLQPSPISSKHKTRLFPLKDRVYLKLTIADPFACIASMSLKIIGPTEEVARLRHVLSDGLSNWDSEMNIHKNLLRMFDLCYFPMPDWSDGPKLDEEDNEELRCNICFAYRLDGGEVPLVSCDNAKCVLKCHAVCLEEWFKTLMDGKTFLEVSFGQCPFCKAKLSTSFAALLND | binds
FANCL DRWD-RING (residues 105-381) (domain or fragment, Drosophila melanogaster, UniProt Q8T913 105-381, looked up) LCREGNIYYDILALYKSNEYCLQVDEACSMIRFSEFTDFEQHYLELKIPSLLLLDHSLPDCVSLGEMLTKSAGNLEEALNLFRKLLEDLRPFYDNFMDIDELCHVLQPSPISSKHKTRLFPLKDRVYLKLTIADPFACIASMSLKIIGPTEEVARLRHVLSDGLSNWDSEMNIHKNLLRMFDLCYFPMPDWSDGPKLDEEDNEELRCNICFAYRLDGGEVPLVSCDNAKCVLKCHAVCLEEWFKTLMDGKTFLEVSFGQCPFCKAKLSTSFAALLND | binds

From PMC2929457 (Nature structural & molecular biology, 2010)
